Measurements as given in patent US20160159928A1.
Where “and” joins values, the source holds several entries; their conditions need not be identical. Equal entries are not always repeated. Where two headings read alike, the source gives them in different places. Each block holds one substance with its values, some of them ahead of it.

Experiments:
Assay in all cases: cell-based or functional assay
Kv1.3 (human) = Kv1.3 (human) (UniProt P22001)
CXCR1 [1] = molecular target: CXCR1 (UniProt P25024)
Sequence of CXCR1 (P25024 whole entry): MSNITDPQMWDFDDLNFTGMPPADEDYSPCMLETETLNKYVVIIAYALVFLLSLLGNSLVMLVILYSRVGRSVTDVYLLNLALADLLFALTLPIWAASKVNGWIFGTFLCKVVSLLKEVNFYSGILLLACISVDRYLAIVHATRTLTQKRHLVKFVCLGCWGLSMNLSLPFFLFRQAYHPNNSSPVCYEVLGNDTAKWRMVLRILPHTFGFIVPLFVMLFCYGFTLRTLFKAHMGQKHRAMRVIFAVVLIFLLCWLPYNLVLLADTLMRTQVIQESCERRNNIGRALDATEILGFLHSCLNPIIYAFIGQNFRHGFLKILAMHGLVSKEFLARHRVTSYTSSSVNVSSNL

CXCR1 [2] = molecular target: CXCR1 (UniProt P25024); remark: listed apart in the source

Sequence of Kv1.3 (human) (P22001 whole entry): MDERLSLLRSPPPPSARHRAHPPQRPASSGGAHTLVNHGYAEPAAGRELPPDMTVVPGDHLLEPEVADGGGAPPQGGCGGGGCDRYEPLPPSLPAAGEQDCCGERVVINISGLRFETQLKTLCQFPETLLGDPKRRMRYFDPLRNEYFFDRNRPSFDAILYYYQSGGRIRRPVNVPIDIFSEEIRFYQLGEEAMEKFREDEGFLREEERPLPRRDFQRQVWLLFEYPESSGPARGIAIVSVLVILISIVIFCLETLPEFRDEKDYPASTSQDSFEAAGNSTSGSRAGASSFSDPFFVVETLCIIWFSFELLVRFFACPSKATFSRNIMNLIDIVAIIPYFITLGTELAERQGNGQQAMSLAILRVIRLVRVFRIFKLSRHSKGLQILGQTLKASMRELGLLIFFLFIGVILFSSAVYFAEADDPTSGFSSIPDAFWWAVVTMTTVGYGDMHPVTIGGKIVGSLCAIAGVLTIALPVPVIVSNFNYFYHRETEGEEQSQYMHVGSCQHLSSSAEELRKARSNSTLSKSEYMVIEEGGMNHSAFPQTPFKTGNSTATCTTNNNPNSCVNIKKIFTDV
Sequence of interleukin 8 (soluble) (P10145 28-99 limits assumed): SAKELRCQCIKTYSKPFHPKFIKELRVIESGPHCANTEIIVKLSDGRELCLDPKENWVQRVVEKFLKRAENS

IL-2 ELISA (A450); Donor 1; 150 nM IgG (Kv1.3 (human)): 0.445 A450
IL-2 ELISA (A450); Donor 2; 150 nM IgG (Kv1.3 (human)): 0.355 A450
TNF-α ELISA (A450); Donor 1; 150 nM IgG (Kv1.3 (human)): 0.11 A450
TNF-α ELISA (A450); Donor 2; 150 nM IgG (Kv1.3 (human)): 0.058 A450
Substance: BLV1H12 (antibody)

average RLU at 0.001 nM IgG (CXCR1 [1]): 7500 RLU
average RLU at 0.004 nM IgG (CXCR1 [1]): 7390 RLU
average RLU at 0.013 nM IgG (CXCR1 [1]): 7050 RLU
average RLU at 0.040 nM IgG (CXCR1 [1]): 6970 RLU
average RLU at 0.120 nM IgG (CXCR1 [1]): 7330 RLU
average RLU at 0.359 nM IgG (CXCR1 [1]): 6690 RLU
average RLU at 1.076 nM IgG (CXCR1 [1]): 7180 RLU
average RLU at 3.228 nM IgG (CXCR1 [1]): 7030 RLU
average RLU at 9.685 nM IgG (CXCR1 [1]): 7170 RLU
average RLU at 29.056 nM IgG (CXCR1 [1]): 7100 RLU
average RLU at 87.167 nM IgG (CXCR1 [1]): 7140 RLU
average RLU at 261.500 nM IgG (CXCR1 [1]): 7540 RLU
Substance: IgG VH4-4 CDR3 BsaI (lacking the IL-8 insert) (antibody)

IL-2 ELISA (A450), Donor 1, [IgG] 0.01 nM (Kv1.3 (human)): 2 A450 and 2.15 A450
IL-2 ELISA (A450), Donor 1, [IgG] 0.75 nM (Kv1.3 (human)): 2.11 A450 and 2.04 A450
IL-2 ELISA (A450), Donor 1, [IgG] 68 nM (Kv1.3 (human)): 1.48 A450 and 1.55 A450
IL-2 ELISA (A450), Donor 2, [IgG] 0.01 nM (Kv1.3 (human)): 1.61 A450 and 1.48 A450
IL-2 ELISA (A450), Donor 2, [IgG] 0.75 nM (Kv1.3 (human)): 1.56 A450 and 1.52 A450
IL-2 ELISA (A450), Donor 2, [IgG] 68 nM (Kv1.3 (human)): 1.5 A450 and 1.37 A450
TNF-α ELISA (A450), Donor 1, [IgG] 0.01 nM (Kv1.3 (human)): 1.62 A450 and 1.66 A450
TNF-α ELISA (A450), Donor 1, [IgG] 0.75 nM (Kv1.3 (human)): 1.69 A450 and 1.65 A450
TNF-α ELISA (A450), Donor 1, [IgG] 68 nM (Kv1.3 (human)): 1.02 A450 and 1.13 A450
TNF-α ELISA (A450), Donor 2, [IgG] 0.01 nM (Kv1.3 (human)): 2.07 A450 and 1.77 A450
TNF-α ELISA (A450), Donor 2, [IgG] 0.75 nM (Kv1.3 (human)): 2.04 A450 and 1.85 A450
TNF-α ELISA (A450), Donor 2, [IgG] 68 nM (Kv1.3 (human)): 1.88 A450 and 1.54 A450
Substance: Negative Control IgG (antibody)

luminescence at 0.4 nM IL-8 domains (CXCR1 [2]): 4930
luminescence at 1.6 nM IL-8 domains (CXCR1 [2]): 8730
luminescence at 6.25 nM IL-8 domains (CXCR1 [2]): 22300
luminescence at 25 nM IL-8 domains (CXCR1 [2]): 42200
luminescence at 100 nM IL-8 domains (CXCR1 [2]): 54000
average RLU at 0.01 nM (CXCR1 [1]): 440 RLU
average RLU at 0.08 nM (CXCR1 [1]): 504 RLU
average RLU at 0.23 nM (CXCR1 [1]): 940 RLU
average RLU at 0.69 nM (CXCR1 [1]): 1940 RLU
average RLU at 2.06 nM (CXCR1 [1]): 4110 RLU
average RLU at 6.17 nM (CXCR1 [1]): 5870 RLU
average RLU at 18.52 nM (CXCR1 [1]): 7300 RLU
average RLU at 31.5 nM (CXCR1 [1]): 55500 RLU
average RLU at 55.56 nM (CXCR1 [1]): 7360 RLU
average RLU at 166.67 nM (CXCR1 [1]): 6770 RLU
average RLU at 500.00 nM (CXCR1 [1]): 5720 RLU
luminescence at 0.1 nM IL-8 domains (CXCR1 [1]): 4200
luminescence at 0.4 nM IL-8 domains (CXCR1 [1]): 6530
luminescence at 0.5 nM IL-8 domains (CXCR1 [1]): 9790
luminescence at 1.6 nM IL-8 domains (CXCR1 [1]): 12200
luminescence at 2.2 nM IL-8 domains (CXCR1 [1]): 25700
luminescence at 6.25 nM IL-8 domains (CXCR1 [1]): 28600
luminescence at 9.9 nM IL-8 domains (CXCR1 [1]): 50300
luminescence at 25 nM IL-8 domains (CXCR1 [1]): 50500
luminescence at 44 nM IL-8 domains (CXCR1 [1]): 54100
luminescence at 100 nM IL-8 domains (CXCR1 [1]): 70200
luminescence at 200 nM IL-8 domains (CXCR1 [1]): 50400
Substance: interleukin 8 (soluble) (from UniProt P10145 28-99) (ligand)
